Assay results reported in patent US20080300210A1.

Molecular target: cell receptor(s) in the thrips midgut (Frankliniella occidentalis)
Assay: cell-based or functional assay

“GN-S, soluble version of the Tomato spotted wilt virus (TSWV) GN envelope/membrane glycoprotein (from UniProt P36291 35-309)” was tested, and the percent of transmitting adults (thrips given an acquisition access period on GN-S mixed with purified TSWV) was 8 fold and the proportion of thrips infected with virus (real time RT-PCR, insects pre-exposed to GN-S then fed on TSWV-infected plant material) was 3 fold.
